Data from patent US20200024322A1 (Eli Lilly, published 2020).
Numbered stars: 1 amine (or outer) side, 2 acyl side, 3 side chain; on linkers, the order of the positions; unused ones are H or OH. Square brackets hold non-standard residues; d marks the D form. Side chains are listed from the residue outwards. Ends that are not written are not given here. * marks the point of attachment. C20 diacid = O=C(O)CCCCCCCCCCCCCCCCCCC(=O)*; γGlu = O=C(O)[C@H](CCC(=O)[*:2])N[*:1]; αMeL = CC(C)C[C@](C)(N)C(=O)O; AEEA = NCCOCCOCC(=O)O; Aib = CC(C)(N)C(=O)O

T1: human GIP receptor (human, UniProt P48546 22-466)
T1 construct: whole, on cells; Used as crude membranes of stably transfected CHO cells; also called hGIPR
T1 sequence (looked up): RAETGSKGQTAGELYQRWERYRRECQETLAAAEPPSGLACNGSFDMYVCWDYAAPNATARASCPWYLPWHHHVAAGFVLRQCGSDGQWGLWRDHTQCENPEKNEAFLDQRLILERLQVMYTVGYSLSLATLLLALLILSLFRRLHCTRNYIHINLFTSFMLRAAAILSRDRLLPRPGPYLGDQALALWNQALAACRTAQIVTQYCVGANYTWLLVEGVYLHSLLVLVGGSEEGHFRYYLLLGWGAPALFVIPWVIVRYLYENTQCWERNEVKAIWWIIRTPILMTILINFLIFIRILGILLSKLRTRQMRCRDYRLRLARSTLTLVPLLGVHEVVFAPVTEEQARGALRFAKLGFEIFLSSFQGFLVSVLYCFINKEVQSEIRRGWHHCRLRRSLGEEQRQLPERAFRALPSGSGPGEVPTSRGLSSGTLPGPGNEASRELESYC


Assays:
human GIP receptor = target: T1, human GIP receptor; experiment: SPA, [125I]-GIP displacement, hGIPR membranes
human GLP-1 receptor = target: T2, human GLP-1 receptor (human, UniProt P43220 24-463); experiment: SPA, [125I]-GLP-1 displacement, hGLP-1R membranes
T2 construct: whole, on cells; Used as crude membranes of stably transfected HEK293 cells; also called hGLP1R; hGLP-1R

Row | Binder | Ki (human GIP receptor) [nM] | Ki (human GLP-1 receptor) [nM]
1 | YXEGTFTSDYSIXLDSKAQXAFIEYLIEGGPSSGAPPPS (Aib2; αMeL13; K17((2-[2-(2-Amino-ethoxy)-ethoxy]-acetyl)2-(γ-Glu)-CO-(CH2)18-CO2H); Aib20; C-terminal NH2) [Example 52] | 0.0342 | 5.81
2 | YXEGTFTSDYSILLDKKAQXAFIXYLIEGGPSSGAPPPS (Aib2; K17((2-[2-(2-Amino-ethoxy)-ethoxy]-acetyl)2-(γ-Glu)-CO-(CH2)18-CO2H); Aib20; D-Glu24; C-terminal NH2) [Example 84] | 0.143 | 10.2
3 | YXEGTFTSDYSXLLDKKAQXAFIEYLIEGGPSSGAPPPS (Aib2; D-Ile12; K17((2-[2-(2-Amino-ethoxy)-ethoxy]-acetyl)2-(γ-Glu)-CO-(CH2)18-CO2H); Aib20; C-terminal NH2) [Example 82] | 14.9 | 6.82
4 | YXEGTXTSDESILLDKKAQXAFIEYLIEGGPSSGAPPPS (Aib2; αMeF6; K17((2-[2-(2-Amino-ethoxy)-ethoxy]-acetyl)2-(γ-Glu)-CO-(CH2)18-CO2H); Aib20; C-terminal NH2) [Example 130] | 0.177 | 3.66
5 | Y[Aib]EGTFTSDYSILLDKIAQ[Aib]AFIEYLIEK([AEEA-AEEA-γGlu-C20 diacid])GPSSGAPPPS-NH2 (N-terminus assumed; SMILES CC[C@H](C)[C@H](NC(=O)[C@H](CCCCN)NC(=O)[C@H](CC(=O)O)NC(=O)[C@H](CC(C)C)NC(=O)[C@H](CC(C)C)NC(=O)[C@@H](NC(=O)[C@H](CO)NC(=O)[C@H](Cc1ccc(O)cc1)NC(=O)[C@H](CC(=O)O)NC(=O)[C@H](CO)NC(=O)[C@@H](NC(=O)[C@H](Cc1ccccc1)NC(=O)[C@@H](NC(=O)CNC(=O)[C@H](CCC(=O)O)NC(=O)C(C)(C)NC(=O)[C@@H](N)Cc1ccc(O)cc1)[C@@H](C)O)[C@@H](C)O)[C@@H](C)CC)C(=O)N[C@@H](C)C(=O)N[C@@H](CCC(N)=O)C(=O)NC(C)(C)C(=O)N[C@@H](C)C(=O)N[C@@H](Cc1ccccc1)C(=O)N[C@H](C(=O)N[C@@H](CCC(=O)O)C(=O)N[C@@H](Cc1ccc(O)cc1)C(=O)N[C@@H](CC(C)C)C(=O)N[C@H](C(=O)N[C@@H](CCC(=O)O)C(=O)N[C@@H](CCCCNC(=O)COCCOCCNC(=O)COCCOCCNC(=O)CC[C@H](NC(=O)CCCCCCCCCCCCCCCCCCC(=O)O)C(=O)O)C(=O)NCC(=O)N1CCC[C@H]1C(=O)N[C@@H](CO)C(=O)N[C@@H](CO)C(=O)NCC(=O)N[C@@H](C)C(=O)N1CCC[C@H]1C(=O)N1CCC[C@H]1C(=O)N1CCC[C@H]1C(=O)N[C@@H](CO)C(N)=O)[C@@H](C)CC)[C@@H](C)CC) [Example 38] | 0.104 | 31.3
6 | Y[Aib]EGTFTSDYSILLDKK([AEEA-AEEA-γGlu-C20 diacid])AQ[Aib]AFIEYLIEAGPSSGAPPPS-NH2 (N-terminus assumed; SMILES CC[C@H](C)[C@H](NC(=O)[C@H](CC(C)C)NC(=O)[C@H](Cc1ccc(O)cc1)NC(=O)[C@H](CCC(=O)O)NC(=O)[C@@H](NC(=O)[C@H](Cc1ccccc1)NC(=O)[C@H](C)NC(=O)C(C)(C)NC(=O)[C@H](CCC(N)=O)NC(=O)[C@H](C)NC(=O)[C@H](CCCCNC(=O)COCCOCCNC(=O)COCCOCCNC(=O)CC[C@H](NC(=O)CCCCCCCCCCCCCCCCCCC(=O)O)C(=O)O)NC(=O)[C@H](CCCCN)NC(=O)[C@H](CC(=O)O)NC(=O)[C@H](CC(C)C)NC(=O)[C@H](CC(C)C)NC(=O)[C@@H](NC(=O)[C@H](CO)NC(=O)[C@H](Cc1ccc(O)cc1)NC(=O)[C@H](CC(=O)O)NC(=O)[C@H](CO)NC(=O)[C@@H](NC(=O)[C@H](Cc1ccccc1)NC(=O)[C@@H](NC(=O)CNC(=O)[C@H](CCC(=O)O)NC(=O)C(C)(C)NC(=O)[C@@H](N)Cc1ccc(O)cc1)[C@@H](C)O)[C@@H](C)O)[C@@H](C)CC)[C@@H](C)CC)C(=O)N[C@@H](CCC(=O)O)C(=O)N[C@@H](C)C(=O)NCC(=O)N1CCC[C@H]1C(=O)N[C@@H](CO)C(=O)N[C@@H](CO)C(=O)NCC(=O)N[C@@H](C)C(=O)N1CCC[C@H]1C(=O)N1CCC[C@H]1C(=O)N1CCC[C@H]1C(=O)N[C@@H](CO)C(N)=O) [Example 86] | 0.0401 | 3.74
7 | Y[Aib]EGTFTSDASILLDKK([AEEA-AEEA-γGlu-C20 diacid])AQ[Aib]AFIEYLIEGGPSSGAPPPS-NH2 (N-terminus assumed; SMILES CC[C@H](C)[C@H](NC(=O)[C@H](CC(C)C)NC(=O)[C@H](Cc1ccc(O)cc1)NC(=O)[C@H](CCC(=O)O)NC(=O)[C@@H](NC(=O)[C@H](Cc1ccccc1)NC(=O)[C@H](C)NC(=O)C(C)(C)NC(=O)[C@H](CCC(N)=O)NC(=O)[C@H](C)NC(=O)[C@H](CCCCNC(=O)COCCOCCNC(=O)COCCOCCNC(=O)CC[C@H](NC(=O)CCCCCCCCCCCCCCCCCCC(=O)O)C(=O)O)NC(=O)[C@H](CCCCN)NC(=O)[C@H](CC(=O)O)NC(=O)[C@H](CC(C)C)NC(=O)[C@H](CC(C)C)NC(=O)[C@@H](NC(=O)[C@H](CO)NC(=O)[C@H](C)NC(=O)[C@H](CC(=O)O)NC(=O)[C@H](CO)NC(=O)[C@@H](NC(=O)[C@H](Cc1ccccc1)NC(=O)[C@@H](NC(=O)CNC(=O)[C@H](CCC(=O)O)NC(=O)C(C)(C)NC(=O)[C@@H](N)Cc1ccc(O)cc1)[C@@H](C)O)[C@@H](C)O)[C@@H](C)CC)[C@@H](C)CC)C(=O)N[C@@H](CCC(=O)O)C(=O)NCC(=O)NCC(=O)N1CCC[C@H]1C(=O)N[C@@H](CO)C(=O)N[C@@H](CO)C(=O)NCC(=O)N[C@@H](C)C(=O)N1CCC[C@H]1C(=O)N1CCC[C@H]1C(=O)N1CCC[C@H]1C(=O)N[C@@H](CO)C(N)=O) [Example 85] | 0.621 | 1.87
8 | YXEGTXTSDASIXLDEKAQXEFIXYLIEGGPSSGAPPPS (Aib2; αMeF(2F)6; αMeL13; K17((2-[2-(2-Amino-ethoxy)-ethoxy]-acetyl)2-(γ-Glu)-CO-(CH2)18-CO2H); Aib20; D-Glu24; C-terminal NH2) [Example 192] | 0.118 | 2.89
9 | YXEGTXTSDYSIXLDXKAQXEFIXYLIEGGPSSGAPPPS (Aib2; αMeF(2F)6; αMeL13; Dap16; K17((2-[2-(2-Amino-ethoxy)-ethoxy]-acetyl)2-(γ-Glu)-CO-(CH2)16-CO2H); Aib20; D-Glu24; C-terminal NH2) [Example 210] | 0.0399 | 1.58
10 | YXEGTXTSDYSIXLDXKAQXEFIXYLIEGGPSSGAPPPS (Aib2; αMeF(2F)6; αMeL13; Dab16; K17((2-[2-(2-Amino-ethoxy)-ethoxy]-acetyl)2-(γ-Glu)-CO-(CH2)16-CO2H); Aib20; D-Glu24; C-terminal NH2) [Example 209] | 0.0664 | 1.43
11 | YXEGTXTSDYSIXLDEKAQXEFIXYLIEGGPSSGAPPPS (Aib2; αMeF(2F)6; αMeL13; K17((2-[2-(2-Amino-ethoxy)-ethoxy]-acetyl)2-(γ-Glu)-CO-(CH2)14-CO2H); Aib20; D-Glu24; C-terminal NH2) [Example 208] | 0.0537 | 2.13
12 | YXEGTXTSDXSIXLDEKAQXTFIXYLIEGGPSSGAPPPS (Aib2; αMeF(2F)6; Aib10; αMeL13; K17((2-[2-(2-Amino-ethoxy)-ethoxy]-acetyl)2-(γ-Glu)-CO-(CH2)18-CO2H); Aib20; D-Glu24; C-terminal NH2) [Example 160] | 5.98 | 14.4
13 | H[Aib]EGTFTSDYSI[αMeL]LDEK([AEEA-AEEA-γGlu-C20 diacid])AQHAFIEYLIEGGPSSGAPPPS-NH2 (N-terminus assumed; SMILES CC[C@H](C)[C@H](NC(=O)[C@H](CC(C)C)NC(=O)[C@H](Cc1ccc(O)cc1)NC(=O)[C@H](CCC(=O)O)NC(=O)[C@@H](NC(=O)[C@H](Cc1ccccc1)NC(=O)[C@H](C)NC(=O)[C@H](Cc1c[nH]cn1)NC(=O)[C@H](CCC(N)=O)NC(=O)[C@H](C)NC(=O)[C@H](CCCCNC(=O)COCCOCCNC(=O)COCCOCCNC(=O)CC[C@H](NC(=O)CCCCCCCCCCCCCCCCCCC(=O)O)C(=O)O)NC(=O)[C@H](CCC(=O)O)NC(=O)[C@H](CC(=O)O)NC(=O)[C@H](CC(C)C)NC(=O)[C@](C)(CC(C)C)NC(=O)[C@@H](NC(=O)[C@H](CO)NC(=O)[C@H](Cc1ccc(O)cc1)NC(=O)[C@H](CC(=O)O)NC(=O)[C@H](CO)NC(=O)[C@@H](NC(=O)[C@H](Cc1ccccc1)NC(=O)[C@@H](NC(=O)CNC(=O)[C@H](CCC(=O)O)NC(=O)C(C)(C)NC(=O)[C@@H](N)Cc1c[nH]cn1)[C@@H](C)O)[C@@H](C)O)[C@@H](C)CC)[C@@H](C)CC)C(=O)N[C@@H](CCC(=O)O)C(=O)NCC(=O)NCC(=O)N1CCC[C@H]1C(=O)N[C@@H](CO)C(=O)N[C@@H](CO)C(=O)NCC(=O)N[C@@H](C)C(=O)N1CCC[C@H]1C(=O)N1CCC[C@H]1C(=O)N1CCC[C@H]1C(=O)N[C@@H](CO)C(N)=O) [Example 55] | 6.24 | 7.29
14 | Y[Aib]EGTFTSDYSI[αMeL]LDEK([AEEA-AEEA-γGlu-C20 diacid])AQHAFIEYLIEGGPSSGAPPPS-NH2 (N-terminus assumed; SMILES CC[C@H](C)[C@H](NC(=O)[C@H](CC(C)C)NC(=O)[C@H](Cc1ccc(O)cc1)NC(=O)[C@H](CCC(=O)O)NC(=O)[C@@H](NC(=O)[C@H](Cc1ccccc1)NC(=O)[C@H](C)NC(=O)[C@H](Cc1c[nH]cn1)NC(=O)[C@H](CCC(N)=O)NC(=O)[C@H](C)NC(=O)[C@H](CCCCNC(=O)COCCOCCNC(=O)COCCOCCNC(=O)CC[C@H](NC(=O)CCCCCCCCCCCCCCCCCCC(=O)O)C(=O)O)NC(=O)[C@H](CCC(=O)O)NC(=O)[C@H](CC(=O)O)NC(=O)[C@H](CC(C)C)NC(=O)[C@](C)(CC(C)C)NC(=O)[C@@H](NC(=O)[C@H](CO)NC(=O)[C@H](Cc1ccc(O)cc1)NC(=O)[C@H](CC(=O)O)NC(=O)[C@H](CO)NC(=O)[C@@H](NC(=O)[C@H](Cc1ccccc1)NC(=O)[C@@H](NC(=O)CNC(=O)[C@H](CCC(=O)O)NC(=O)C(C)(C)NC(=O)[C@@H](N)Cc1ccc(O)cc1)[C@@H](C)O)[C@@H](C)O)[C@@H](C)CC)[C@@H](C)CC)C(=O)N[C@@H](CCC(=O)O)C(=O)NCC(=O)NCC(=O)N1CCC[C@H]1C(=O)N[C@@H](CO)C(=O)N[C@@H](CO)C(=O)NCC(=O)N[C@@H](C)C(=O)N1CCC[C@H]1C(=O)N1CCC[C@H]1C(=O)N1CCC[C@H]1C(=O)N[C@@H](CO)C(N)=O) [Example 56] | 0.148 | 10.3
